Assay results published in patent US8058396B2, “Cystatin C as an antagonist of TGF-β and methods related thereto” (National Jewish Health, priority 2003, dated 2011).

Experiments:
[1] = tested on: HT1080 cells; assay: DNA synthesis in HT1080 cells; format: cell-based, human; conditions: overexpression in HT1080 cells; data not shown
[2] = tested on: HT1080 fibrosarcoma cells; assay: HT1080 cell invasion through Matrigel matrices; format: cell-based, human; conditions: retroviral expression in HT1080 cells; 48 hr; relative to GFP-expressing cells; p<0.05
Procedure: The effect CystC and D14CystC on the invasion of HT1080 and 3T3-L1 cells was determined as described previously (42). Briefly, upper chambers were coated with 100 μl of diluted Matrigel (1:50 in serum-free media), which was allowed to evaporate to dryness overnight at room temperature. The following morning the Matrigel mixtures were rehydrated and subsequently cultured with control-, CystC-, or D14CystC-expressing HT1080 or 3T3-L1 cells at a density of 100,000 cells/chamber. Cellular invasion was stimulated by addition of 2% serum to the lower chambers. Forty-eight hr later, the cells were washed twice in ice-cold PBS and immediately fixed for 15 min with 95% ethanol. Cells remaining in the upper chambers were removed with a cotton swab, whereas those remaining in the lower chamber were stained with crystal violet. Quantifying invading cells was determined through two independent measures, which yielded identical results: (i) manual counting under a light microscope, and (ii) crystal violet dye extraction by incubation of the membranes in 10% acetic acid, followed by spectrophotometry at 590 nm.
Cathepsin B is a lysosomal cysteine proteinase that functions in intracellular protein catabolism, as well as in bone resorption, hormone activation, and antigen processing (5). During tumorigenesis, cancer cells express a cathepsin B splice variant whose protein product is secreted into the extracellular milieu (5) and localized to the leading edge of invasive tumors (19), thereby promoting cancer cell invasion and metastasis. However, recent evidence has questioned the role of intracellular versus extracellular cathepsin B in promoting cancer cell invasion (20). To distinguish between these two possibilities, human HT1080 fibrosarcoma cells that stably express the murine ecotropic receptor (21) were infected with control (i.e., GFP), CystC, or Δ14CystC retrovirus. Afterward, cells that expressed GFP were isolated by flow cytometry to establish stable polyclonal populations of control-, CystC-, and Δ14CystC-expressing HT1080 cells (data not shown). The inventor chose to study HT1080 cells because they are highly invasive, and because they express large quantities of secreted cathepsin B and comparably little CystC (22). Thus, if extracellular cathepsin B mediates HT1080 cell invasion, it was hypothesized that overexpression of secreted CystC would attenuate their invasion through synthetic basement membranes.
Briefly, GFP-, CystC-, or Δ14CystC-expressing HT0180 cells were allowed to invade through Matrigel-coated membranes for 48 hr. Data shown in FIG. 1A are the mean (±SE) of three (Δ14CystC) and nine (GFP and CystC) independent experiments presented as the percent invasion relative to GFP-expressing HT1080 cells (***, p<0.05; Student's T-Test).

[3] = tested on: TGF-β signaling; assay: p3TP-luciferase reporter gene assay in HT1080 cells; format: cell-based, human; conditions: expression in HT1080 cells; TGF-β1 0-5 ng/ml
Procedure: Analysis of luciferase activity driven by the synthetic p3TP reporter ((26); generously provided by Dr. Joan Massague, Sloan Kettering) was performed as described previously (42). Briefly, control, CystC-, or Δ14CystC-expressing 3T3-L1 or HT1080 cells were cultured onto 24-well plates at a density of 45,000 cells/well and allowed to adhere overnight. The cells were transiently transfected the following morning by overnight exposure to LT1 liposomes (Mirus) containing 300 ng/well p3TP-luciferase and 100 ng/well of pCMV-β-gal. Afterward, the cells were washed twice with PBS and stimulated overnight in serum-free media with increasing concentrations of TGF-β1 as indicated. The following morning, luciferase and β-gal activities contained in detergent-solubilized cell extracts were determined.
The inventor therefore hypothesized that CystC expression might impact TGF-β signaling via a cathepsin B-dependent mechanism. To test this hypothesis, changes in luciferase expression driven by the synthetic p3TP-luciferase reporter gene (26) were measured in control- and CystC-expressing HT1080 cells. Briefly, GFP-, CystC-, or Δ14CystC-expressing HT0180 cells were transiently transfected with p3TP-luciferase and pCMV-β-gal. The transfectants were stimulated with increasing concentrations of TGF-β1 (0-5 ng/ml) as indicated, and subsequently processed to measure luciferase and β-gal activities. […]

[4] = biological target: TGF-β1 (Homo sapiens, UniProt P01137); assay: Co-immunoprecipitation and affinity pull-down of CystC with TGF-β1; format: binding; conditions: data not shown
[5] = tested on: 3T3-L1 cells; assay: Migration of 3T3-L1 cells to fibronectin; format: cell-based, murine; conditions: data not shown
[6] = tested on: 3T3-L1 cells; assay: DNA synthesis in 3T3-L1 cells; format: cell-based, murine; conditions: data not shown
[7] = tested on: NMuMG cells; assay: NMuMG cell invasion through Matrigel matrices; format: cell-based, murine; conditions: expression in NMuMG cells, 48 hours, p<0.05; for TGF-β1-enhanced NMuMG cell invasion: TGF-β1 5 ng/ml
Procedure: In another experiment, NMuMG cells were infected with ecotropic retrovirus encoding either GFP (i.e., control), CystC, or Δ14CystC, and subsequently were isolated by FACS-sorting for GFP expression to yield stable polyclonal populations of control, CystC, and Δ14CystC-expressing cells. The expression and secretion of recombinant CystC proteins by infected NMuMG and NRK cells was monitored by immunoblotting conditioned-media with anti-CystC antibodies. The same cells were incubated in the absence or presence of TGF-β1 (5 ng/ml) for 8 hours, whereupon alterations in actin cytoskeletal architecture was visualized by direct rhodamine-phalloidin immunofluorescence. Next, the control, CystC-, and Δ14CystC-expressing NMuMG cells were incubated in the absence or presence of TGF-β1 (5 ng/ml) for 36 hours, whereupon E-cadherin expression was monitored by immunoblotting with anti-E-Cadherin antibodies. Finally, control, CystC-, and Δ14CystC-expressing NMuMG cells were allowed to invade through Matrigel matrices in the absence or presence of TGF-β1 (5 ng/ml) for 48 hours.

[8] = biological target: cathepsin B (Homo sapiens, UniProt P07858); conditions: mutant lacks the cysteine inhibitor motif; reference 23; cited from earlier work

Sequence of TGF-β1 (P01137 279-390 limits assumed, species assumed): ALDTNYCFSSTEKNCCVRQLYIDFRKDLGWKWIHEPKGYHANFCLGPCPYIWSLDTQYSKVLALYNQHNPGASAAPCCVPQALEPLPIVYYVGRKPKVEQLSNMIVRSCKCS

| Molecule | synthesis of DNA in HT1080 cells [1] | HT1080 cell invasion through Matrigel matrices [2] | TGF-β-stimulated luciferase activity driven by the p3TP promoter [3] | direct physical interaction with TGF-β1 [4] | 3T3-L1 cell migration to fibronectin [5] | 3T3-L1 cell DNA synthesis [6] | tonic NMuMG cell invasion [7] | TGF-β1-enhanced NMuMG cell invasion [7] | inactivation of cathepsin B [8] |
| --- | --- | --- | --- | --- | --- | --- | --- | --- | --- |
| CystC: full-length human Cystatin C (SEQ ID NO:2), C-terminally Myc- and (His)6-tagged, retrovirally expressed and secreted by the cells (protein, listed as Homo sapiens, C-terminal Myc and His6 tags) MAGPLRAPLLLLAILAVALAVSPAAGSSPGKPPRLVGGPMDASVEEEGVRRALDFAVGEYNKASNDMYHSRALQVVRARKQIVAGVNYFLDVELGRTTCTKTQPNLDNCPFHDQPHLKRKAFCSFQIYAVPWQGTMTLSKSTCQDA | failed to effect | significantly inhibited | significantly inhibited | failed to demonstrate a direct physical interaction | failed to effect | failed to effect | significantly inhibited | inhibited significantly |  |
| Δ14CystC: human CystC with deletion of positions 80 to 93 (conserved cysteine proteinase inhibitor motif), retrovirally expressed and secreted (protein, left off: small tags and cut ends) MAGPLRAPLLLLAILAVALAVSPAAGSSPGKPPRLVGGPMDASVEEEGVRRALDFAVGEYNKASNDMYHSRALQVVRARLGRTTCTKTQPNLDNCPFHDQPHLKRKAFCSFQIYAVPWQGTMTLSKSTCQDA | failed to effect | failed to affect | equally effective as CystC |  |  |  |  | inhibited significantly | unable to inactivate |
